# According to publication PMC4331669, “Phosphatidylinositol binding of Saccharomyces cerevisiae Pdr16p represents an essential feature of this lipid transfer protein to provide protection against azole antifungals” (Biochimica et Biophysica Acta. Molecular and Cell Biology …, 2014):
# Biological target: the molecule itself
# Assay: SEC; Superose 12 10/300 GL, 20 mM PIPES pH 6.8, 250 mM NaCl, 2.7 mM KCl, 0.4 ml/min; BSA and ovalbumin as molecular weight standards; apparent mass about 90 kDa against a predicted monomer of 40.7 kDa
row,Protein,stoichiometry N
1,"Pdr16p (wild-type, recombinant Pdr16-His) (natural protein, S. cerevisiae, UniProt P53860 1-351, looked up, Pdr16p (Sfh3p) of Saccharomyces cerevisiae, ORF PDR16 amplified from YEplac181-PDR16 and inserted between NdeI and NotI of pET26; predicted monomer mass 40.7 kDa; The whole ORF was cloned NdeI-NotI into pET26 with a C-terminal 6xHis; No removal of the tag is described; also called Sfh3p; source: E. coli Rosetta, purified (Ni-NTA agarose)) MFKRFSKKKEAPEDPKNLINIDKPIKELPASIAIPKEKPLTGEQQKMYDEVLKHFSNPDLKVYTSEKNKSEDDLKPLEEEEKAWLTRECFLRYLRATKWVLKDCIDRITMTLAWRREFGISHLGEEHGDKITADLVAVENESGKQVILGYENDARPILYLKPGRQNTKTSHRQVQHLVFMLERVIDFMPAGQDSLALLIDFKDYPDVPKVPGNSKIPPIGVGKEVLHILQTHYPERLGKALLTNIPWLAWTFLKLIHPFIDPLTREKLVFDEPFVKYVPKNELDSLYGGDLKFKYNHDVYWPALVETAREKRDHYFKRFQSFGGIVGLSEVDLRGTHEKLLYPVKSESSTV",2
2,"Pdr16p^(E235A, K267A) (recombinant Pdr16^(E235A, K267A)-His) (natural protein, S. cerevisiae, UniProt P53860 1-351, looked up, Same construct as m1 with the two point mutations; source: E. coli Rosetta, purified (Ni-NTA agarose)) MFKRFSKKKEAPEDPKNLINIDKPIKELPASIAIPKEKPLTGEQQKMYDEVLKHFSNPDLKVYTSEKNKSEDDLKPLEEEEKAWLTRECFLRYLRATKWVLKDCIDRITMTLAWRREFGISHLGEEHGDKITADLVAVENESGKQVILGYENDARPILYLKPGRQNTKTSHRQVQHLVFMLERVIDFMPAGQDSLALLIDFKDYPDVPKVPGNSKIPPIGVGKEVLHILQTHYPARLGKALLTNIPWLAWTFLKLIHPFIDPLTREALVFDEPFVKYVPKNELDSLYGGDLKFKYNHDVYWPALVETAREKRDHYFKRFQSFGGIVGLSEVDLRGTHEKLLYPVKSESSTV",2
